What was measured:
[1] = system: Chimera E (HsaCCA with RcuCCA beta-turn region) (Homo sapiens / Romanomermis culicivorax chimera); experiment: EMSA; settings: 6 mM Mg2+; HEPES/KOH pH 7.6, 30 mM KCl, 6 mM MgCl2, 20 C, 10 min; 0.5 pmol tRNA, 0-4 uM enzyme; 5% native PAGE; n = 3
[2] = system: RcuCCA (CCA-adding enzyme, tRNA nucleotidyltransferase) (Romanomermis culicivorax); experiment: EMSA; settings: 6 mM Mg2+; HEPES/KOH pH 7.6, 30 mM KCl, 6 mM MgCl2, 20 C, 10 min; 0.5 pmol tRNA, 0-4 uM enzyme; 5% native PAGE; n = 3

mt-tRNAIle (armless, lacking CCA)
Kd [1]: 1800 nM
Kd [2]: 1400 nM

GCGGAUUUAGCUCAGUUGGGAGAGCGCCAGACUGAAGAUCUGGAGGUCCUGUGUUCGAUCCACAGAAUUCGCA [tRNAPhe (lacking CCA)]
Kd [2]: 1300 nM
